The assay addresses T1, filamin-A (human, UniProt P21333 2-2647).
T1 construct: whole, on cells; Endogenous filamin-A of human cell lines; No purified filamin-A was used; also called FLNA; FLNa
Nature of the assay: flow cytometry, surface staining of SKNAS (human neuroblastoma) cells, 2 µg primary antibody. The protocol:
B411 surface staining on several different cell types was conducted. Cells were plated at a concentration of 0.5-1.0 million cells per well, and incubated overnight. Cells were then lifted from the wells, washed, and resuspended in flow cytometry media with 2 μg of primary antibody for 1 hour on ice. Cells were washed and incubated with the secondary antibody (5 μg/ml) for 30 minutes on ice. Cells were washed again and analyzed by flow cytometry.
In general terms: Flow cytometry measures light scatter and fluorescence of single cells or particles in a stream.

T1 sequence (P21333 2-2647): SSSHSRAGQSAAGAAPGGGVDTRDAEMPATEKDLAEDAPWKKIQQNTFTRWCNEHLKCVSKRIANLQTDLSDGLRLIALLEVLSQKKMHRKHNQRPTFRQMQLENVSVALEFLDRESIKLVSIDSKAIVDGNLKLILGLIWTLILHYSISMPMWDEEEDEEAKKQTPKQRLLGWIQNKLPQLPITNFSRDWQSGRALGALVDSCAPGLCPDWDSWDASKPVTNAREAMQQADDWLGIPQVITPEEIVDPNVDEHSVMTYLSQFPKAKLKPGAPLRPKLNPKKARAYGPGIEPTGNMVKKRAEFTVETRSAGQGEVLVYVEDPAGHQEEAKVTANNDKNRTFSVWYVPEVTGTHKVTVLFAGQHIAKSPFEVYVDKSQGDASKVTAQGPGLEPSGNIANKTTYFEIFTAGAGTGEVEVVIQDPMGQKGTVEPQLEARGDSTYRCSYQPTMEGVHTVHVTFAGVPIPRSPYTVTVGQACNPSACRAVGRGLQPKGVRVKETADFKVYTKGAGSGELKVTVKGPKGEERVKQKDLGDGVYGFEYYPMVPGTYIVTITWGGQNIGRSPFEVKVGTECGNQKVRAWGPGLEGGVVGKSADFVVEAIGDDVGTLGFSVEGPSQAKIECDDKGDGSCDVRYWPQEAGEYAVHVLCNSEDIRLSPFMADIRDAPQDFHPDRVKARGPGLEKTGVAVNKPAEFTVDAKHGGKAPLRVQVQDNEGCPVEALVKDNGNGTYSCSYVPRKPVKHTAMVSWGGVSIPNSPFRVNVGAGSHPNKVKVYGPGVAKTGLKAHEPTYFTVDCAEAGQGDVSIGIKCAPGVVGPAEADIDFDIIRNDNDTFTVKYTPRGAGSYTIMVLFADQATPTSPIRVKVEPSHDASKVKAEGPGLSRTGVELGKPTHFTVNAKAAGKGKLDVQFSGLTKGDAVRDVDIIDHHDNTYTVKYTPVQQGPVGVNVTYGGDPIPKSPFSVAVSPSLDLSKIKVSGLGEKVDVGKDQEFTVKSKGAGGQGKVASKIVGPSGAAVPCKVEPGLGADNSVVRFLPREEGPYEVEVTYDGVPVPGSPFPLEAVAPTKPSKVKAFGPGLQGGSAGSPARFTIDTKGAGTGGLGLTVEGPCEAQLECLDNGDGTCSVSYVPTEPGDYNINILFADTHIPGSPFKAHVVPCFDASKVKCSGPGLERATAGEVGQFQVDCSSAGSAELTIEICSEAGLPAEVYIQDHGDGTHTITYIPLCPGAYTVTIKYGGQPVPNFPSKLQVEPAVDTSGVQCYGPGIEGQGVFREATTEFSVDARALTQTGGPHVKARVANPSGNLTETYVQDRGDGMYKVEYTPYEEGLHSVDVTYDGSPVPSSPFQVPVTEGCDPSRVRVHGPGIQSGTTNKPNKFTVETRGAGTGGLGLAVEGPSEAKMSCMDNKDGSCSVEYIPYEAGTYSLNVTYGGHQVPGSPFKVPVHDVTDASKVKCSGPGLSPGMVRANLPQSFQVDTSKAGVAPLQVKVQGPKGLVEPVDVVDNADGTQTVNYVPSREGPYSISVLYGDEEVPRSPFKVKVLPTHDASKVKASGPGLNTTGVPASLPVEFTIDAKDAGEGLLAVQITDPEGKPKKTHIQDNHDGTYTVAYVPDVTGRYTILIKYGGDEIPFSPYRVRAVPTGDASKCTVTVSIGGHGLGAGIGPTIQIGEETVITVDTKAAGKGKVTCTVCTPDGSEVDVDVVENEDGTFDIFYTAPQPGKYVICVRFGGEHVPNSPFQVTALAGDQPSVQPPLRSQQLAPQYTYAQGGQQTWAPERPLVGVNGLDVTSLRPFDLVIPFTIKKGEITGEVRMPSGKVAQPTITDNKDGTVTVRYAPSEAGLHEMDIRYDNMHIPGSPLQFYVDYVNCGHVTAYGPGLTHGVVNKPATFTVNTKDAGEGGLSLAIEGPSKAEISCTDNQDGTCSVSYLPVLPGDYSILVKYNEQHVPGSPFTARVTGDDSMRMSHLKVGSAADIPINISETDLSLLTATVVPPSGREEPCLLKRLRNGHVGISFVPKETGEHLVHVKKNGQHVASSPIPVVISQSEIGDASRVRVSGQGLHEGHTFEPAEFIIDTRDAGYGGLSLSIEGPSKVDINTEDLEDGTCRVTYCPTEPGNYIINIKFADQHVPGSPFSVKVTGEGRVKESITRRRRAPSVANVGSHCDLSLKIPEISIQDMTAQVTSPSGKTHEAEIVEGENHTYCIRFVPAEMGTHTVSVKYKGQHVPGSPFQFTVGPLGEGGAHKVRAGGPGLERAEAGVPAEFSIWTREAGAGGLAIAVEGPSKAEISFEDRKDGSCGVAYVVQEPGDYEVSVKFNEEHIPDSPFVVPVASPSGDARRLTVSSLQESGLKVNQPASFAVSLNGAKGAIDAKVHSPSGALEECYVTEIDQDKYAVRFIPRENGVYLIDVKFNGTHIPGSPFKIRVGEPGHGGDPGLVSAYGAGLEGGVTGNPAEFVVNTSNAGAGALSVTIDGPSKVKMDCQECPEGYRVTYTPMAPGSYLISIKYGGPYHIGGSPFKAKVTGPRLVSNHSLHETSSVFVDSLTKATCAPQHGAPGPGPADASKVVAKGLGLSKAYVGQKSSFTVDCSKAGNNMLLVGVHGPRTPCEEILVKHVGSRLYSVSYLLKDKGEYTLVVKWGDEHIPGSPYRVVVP

B1: anti-filamin-A antibody B411 (antibody, human IgG1, kappa, V domains shown)
VH: EVKLVESGGGLVQPGGSLKLSCAASGFTFSSYTMSWVRQTPEKRLEWVAYISNGGGSTYYPDTVKGRFTISRDNAKNTLYLQMSSLKSEDTAMYYCASDGIIRPFAYWGQGTLVTVSA
VL: DIVMTQSHKFMSTSVGDRVSITCKASQDVSLDVAWYQQKPGQSPKLLIYSASHRYTGVPDRFTGSGSGTDFTFTISGVQAEDLAVYFCQQHYSTPLTFGAGTKLELKR
notes: also called B4111
With B1, the binding result was “binds”.

These data come from patent US20220025025A1 (IBEX BIOSCIENCES, published 2022).
